These results are taken from patent publication CN114790240A (UNIV ZHENGZHOU; UNIV HENAN AGRICULTURAL, dated 2022).

Assay [1] concerns the target SARS-CoV-2野生株假病毒 (刺突蛋白) (SARS-CoV-2, UniProt P0DTC2 14-1273). Put plainly: cell-based or functional assay.
Assay [2] addresses 重组RBD蛋白 (SARS-CoV-2 RBD蛋白) (SARS-CoV-2, UniProt P0DTC2 331-524).

B1: 单克隆抗体8H9 (antibody, V domains shown)
VH: QIQLVQSGPELKKPGETVKISCKASGYTFTTYGMSWVKQTPGKGLKWMGWINTYSGVPTYADDFKGRFAFSLETSASTASLQINNLKNEDTATYFCARYDPTAPDYAMDYWGQGTSVTVSS
VL: NIVMTQSPKSMSMSVGERVTLSCKASENVGTYVSWYQQKPEQSPKLLIYGASNRYTGVPDRFTGSGSATDFTLTISSVQAEDLADYHCGQSYIYPLTFGAGTNLELK
In general, EC50 refers to the concentration that produces a half-maximal response. B1 gave a 假病毒中和活性IC50 in assay [1] of 33 ng/mL. Also, the response in assay [2] was half-maximal at 0.0251 µg/mL (EC50).

B2: 单克隆抗体9D4 (antibody, V domains shown)
VH: QVHLQQSGPELVKPGASVKISCKSSGYALTDYYINWVKQRPGQGLEWIGWIFPGNDYTYFNEKFKDKATLTLDKSSRTAYMLLSSLTTEDSAVYFCARYGDGNYVYFDYWGQGTSLTVSS
VL: ETVLIQSPALMAASPGEKVTITCSVSSSISSSNLHWYQQKSGNSPKPWIYGTSNLASGVPVRFSGSGSGTSYSLTISSMEAEDAATYYCQQWSSYPLTFGAGTKLELK
As to B2, the 假病毒中和活性IC50 in assay [1] worked out at 112 ng/mL. In assay [2], this molecule came in with a half-maximal effective concentration (EC50) of 0.0242 µg/mL.
